Numbering of substitutions follows the chain as printed. Several values for one entry are separate records, joined by “and”; a condition that tells them apart may be missing. Identical values can stand only once.
T1: human BCMA on cells (human, UniProt Q02223 1-184)
T1 construct: whole, on cells; also called huBCMA on HEK cells; HEK-huBCMA cells
T1 sequence (looked up): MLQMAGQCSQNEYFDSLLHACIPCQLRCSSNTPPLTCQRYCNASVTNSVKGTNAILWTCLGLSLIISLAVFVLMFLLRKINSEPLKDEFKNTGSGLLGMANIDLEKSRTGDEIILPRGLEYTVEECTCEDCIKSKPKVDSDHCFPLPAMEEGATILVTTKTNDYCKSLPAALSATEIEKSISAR

B1: 21-TCBcv (bispecific antibody, human IgG1, kappa, L234A L235A)
heavy 1: not shown
heavy 2: EVQLLESGGGLVQPGGSLRLSCAASGFTFSDNAMGWVRQAPGKGLEWVSAISGPGSSTYYADSVKGRFTISRDNSKNTLYLQMNSLRAEDTAVYYCAKVLGWFDYWGQGTLVTVSSASTKGPSVFPLAPSSKSTSGGTAALGCLVEDYFPEPVTVSWNSGALTSGVHTFPAVLQSSGLYSLSSVVTVPSSSLGTQTYICNVNHKPSNTKVDEKVEPKSCDKTHTCPPCPAPEAAGGPSVFLFPPKPKDTLMISRTPEVTCVVVDVSHEDPEVKFNWYVDGVEVHNAKTKPREEQYNSTYRVVSVLTVLHQDWLNGKEYKCKVSNKALGAPIEKTISKAKGQPREPQVCTLPPSRDELTKNQVSLSCAVKGFYPSDIAVEWESNGQPENNYKTTPPVLDSDGSFFLVSKLTVDKSRWQQGNVFSCSVMHEALHNHYTQKSLSLSPGK
light 1: EIVLTQSPGTLSLSPGERATLSCRASQSVSEYYLAWYQQKPGQAPRLLIEHASTRATGIPDRFSGSGSGTDFTLTISRLEPEDFAVYYCQQYGYPPDFTFGQGTKVEIKRTVAAPSVFIFPPSDRKLKSGTASVVCLLNNFYPREAKVQWKVDNALQSGNSQESVTEQDSKDSTYSLSSTLTLSKADYEKHKVYACEVTHQGLSSPVTKSFNRGEC
light 2: EVQLLESGGGLVQPGGSLRLSCAASGFTFSTYAMNWVRQAPGKGLEWVSRIRSKYNNYATYYADSVKGRFTISRDDSKNTLYLQMNSLRAEDTAVYYCVRHGNFGNSYVSWFAYWGQGTLVTVSSASVAAPSVFIFPPSDEQLKSGTASVVCLLNNFYPREAKVQWKVDNALQSGNSQESVTEQDSKDSTYSLSSTLTLSKADYEKHKVYACEVTHQGLSSPVTKSFNRGEC
notes: also called anti-BCMA/anti-CD3 T cell bispecific antibody of Mab21
B2: 22-TCBcv (bispecific antibody, human IgG1, kappa, L234A L235A)
heavy 1: not shown
heavy 2: B1 heavy 2
light 1: B1 light 1 with E31S, E50S, H51G, S53G, T54S
light 2: B1 light 2
notes: also called 22-TCVcv; anti-BCMA/anti-CD3 T cell bispecific antibody of Mab22
B3: 42-TCBcv (bispecific antibody, human IgG1, kappa, L234A L235A)
heavy 1: not shown
heavy 2: B1 heavy 2
light 1: B1 light 1 with E31D, Y32E, A35S, E50H, H51S, T75A
light 2: B1 light 2
notes: also called 42-TCVcv; anti-BCMA/anti-CD3 T cell bispecific antibody of Mab42

Experiments:
human BCMA on cells [1] = target: T1, human BCMA on cells; experiment: flow cytometry on RPMI-8226 multiple myeloma cells, PE anti-human Fc F(ab')2 detection; estimated EC50
Method: (§1) Briefly, cultured cells are harvested, counted and cell viability was evaluated using ViCell. Viable cells are then adjusted to 2×10⁶ cells per ml in BSA-containing FACS Stain Buffer (BD Biosciences). 100 μl of this cell suspension were further aliquoted per well into a round-bottom 96-well plate and incubated with 30 μl of the anti-BCMA antibodies or corresponding IgG control for 30 min at 4° c. All Anti-BCMA/anti-CD3 TCB antibodies (and TCB controls) were titrated and analyzed in final concentration range between 1-300 nM. Cells were then centrifuged (5 min, 350×g), washed with 120 μl/well FACS Stain Buffer (BD Biosciences), resuspended and incubated for an additional 30 min at 4° C. with fluorochrome-conjugated PE-conjugated AffiniPure F(ab′)2 Fragment goat anti-human IgG Fc Fragment Specific (Jackson Immuno Research Lab; 109-116-170). Cells were then washed twice with Stain Buffer (BD Biosciences), fixed using 100 ul BD Fixation buffer per well (#BD Biosciences, 554655) at 4° C. for 20 min, resuspended in 120 μl FACS buffer and analyzed using BD FACS CantoII.

human BCMA on cells [2] = target: T1, human BCMA on cells; experiment: cell-based or functional assay
human BCMA on cells [3] = target: T1, human BCMA on cells; experiment: cell-based or functional assay; remark: listed apart in the source
human BCMA on cells [4] = target: T1, human BCMA on cells; experiment: flow cytometry on H929 multiple myeloma cells, PE anti-human Fc F(ab')2 detection; estimated EC50
Method: as §1

human BCMA on cells [5] = target: T1, human BCMA on cells; experiment: cell-based or functional assay; remark: listed apart in the source
human BCMA on cells [6] = target: T1, human BCMA on cells; experiment: cell-based or functional assay; remark: listed apart in the source
human BCMA on cells [7] = target: T1, human BCMA on cells; experiment: cell-based or functional assay; remark: listed apart in the source
human BCMA on cells [8] = target: T1, human BCMA on cells; experiment: flow cytometry on L363 multiple myeloma cells, PE anti-human Fc F(ab')2 detection; estimated EC50
Method: as §1

| Binder | EC50 (human BCMA on cells [1]) | EC50 of redirected T-cell killing of L363 cells (LDH release), Donor 1 (human BCMA on cells [2]) [nM] | EC50 of redirected T-cell killing of L363 cells (LDH release), Donor 2 (human BCMA on cells [2]) [nM] | EC50 of redirected T-cell killing of L363 cells (LDH release), Donor 3 (human BCMA on cells [2]) [nM] | EC50 of redirected T-cell killing of L363 cells (LDH release), Donor 4 (human BCMA on cells [2]) [nM] | EC50 of redirected T-cell killing of L363 cells (LDH release), Donor 5 (human BCMA on cells [2]) [nM] | EC50 of redirected T-cell killing of H929 cells (LDH release), Donor 1 (human BCMA on cells [3]) [nM] | EC50 of redirected T-cell killing of H929 cells (LDH release), Donor 3 (human BCMA on cells [3]) [nM] | EC50 of redirected T-cell killing of H929 cells (LDH release), Donor 4 (human BCMA on cells [3]) [nM] | EC50 of redirected T-cell killing of H929 cells (LDH release), Donor 5 (human BCMA on cells [3]) [nM] | EC50 (human BCMA on cells [4]) | EC50 of redirected T-cell killing of RPMI-8226 cells (LDH release), Donor 2 (human BCMA on cells [5]) [nM] | EC50 of redirected T-cell killing of RPMI-8226 cells (LDH release), Donor 3 (human BCMA on cells [5]) [nM] | EC50 of redirected T-cell killing of RPMI-8226 cells (LDH release), Donor 4 (human BCMA on cells [5]) [nM] | EC50 of redirected T-cell killing of RPMI-8226 cells (LDH release), Donor 5 (human BCMA on cells [5]) [nM] | Lysis of JJN-3 cells (%) at 0.1 pM TCB, Experiment 2 (human BCMA on cells [6]) [%] | Lysis of JJN-3 cells (%) at 1 pM TCB, Experiment 1 (human BCMA on cells [6]) [%] | Lysis of JJN-3 cells (%) at 1 pM TCB, Experiment 2 (human BCMA on cells [6]) [%] | Lysis of JJN-3 cells (%) at 10 pM TCB, Experiment 1 (human BCMA on cells [6]) [%] | Lysis of JJN-3 cells (%) at 10 pM TCB, Experiment 2 (human BCMA on cells [6]) [%] | also measured |
| --- | --- | --- | --- | --- | --- | --- | --- | --- | --- | --- | --- | --- | --- | --- | --- | --- | --- | --- | --- | --- | --- |
| B1 | 6.8 nM and 0.982 µg/mL | 0.0836 | 0.0384 | 0.0189 | 0.0191 | 0.0464 | 0.0971 | 0.0421 | 0.0539 | 0.0387 | 11 nM and 1.59 µg/mL | 0.0413 | 0.0088 | 0.004 | 0.0084 |  |  |  |  |  |  |
| B2 |  | 0.0975 | 0.0277 | 0.0165 | 0.0146 | 0.056 | 0.0532 | 0.0422 | 0.0232 | 0.0289 | 7.9 nM and 1.14 µg/mL | 0.0476 | 0.0076 | 0.0032 | 0.0055 | 36.5 | -4.29 | 24.4 | 73.6 | 41.7 | Lysis of JJN-3 cells (%) at 100 pM TCB, Experiment 1 (human BCMA on cells [6]): 56.3%; Lysis of JJN-3 cells (%) at 100 pM TCB, Experiment 2 (human BCMA on cells [6]): 53%; Lysis of JJN-3 cells (%) at 1000 pM TCB, Experiment 1 (human BCMA on cells [6]): 90.5%; Lysis of JJN-3 cells (%) at 1000 pM TCB, Experiment 2 (human BCMA on cells [6]): 94.1%; Lysis of JJN-3 cells (%) at 10000 pM TCB, Experiment 1 (human BCMA on cells [6]): 88%; Lysis of JJN-3 cells (%) at 10000 pM TCB, Experiment 2 (human BCMA on cells [6]): 91.2%; Annexin-V positive JJN-3 cells (%) at 0.1 pM TCB, Experiment 2 (human BCMA on cells [7]): 14.8%; Annexin-V positive JJN-3 cells (%) at 1 pM TCB, Experiment 1 (human BCMA on cells [7]): 9.3%; Annexin-V positive JJN-3 cells (%) at 1 pM TCB, Experiment 2 (human BCMA on cells [7]): 15%; Annexin-V positive JJN-3 cells (%) at 10 pM TCB, Experiment 1 (human BCMA on cells [7]): 13.3%; Annexin-V positive JJN-3 cells (%) at 10 pM TCB, Experiment 2 (human BCMA on cells [7]): 15.9%; Annexin-V positive JJN-3 cells (%) at 100 pM TCB, Experiment 1 (human BCMA on cells [7]): 12.5%; Annexin-V positive JJN-3 cells (%) at 100 pM TCB, Experiment 2 (human BCMA on cells [7]): 18.4%; Annexin-V positive JJN-3 cells (%) at 1000 pM TCB, Experiment 1 (human BCMA on cells [7]): 26.1%; Annexin-V positive JJN-3 cells (%) at 1000 pM TCB, Experiment 2 (human BCMA on cells [7]): 27%; Annexin-V positive JJN-3 cells (%) at 10000 pM TCB, Experiment 1 (human BCMA on cells [7]): 22.9%; Annexin-V positive JJN-3 cells (%) at 10000 pM TCB, Experiment 2 (human BCMA on cells [7]): 29.7%; EC50 (human BCMA on cells [8]): 30 nM and 4.33 µg/mL |
| B3 | 13.2 nM and 1.91 µg/mL | 0.0155 | 0.0167 | 0.0052 | 0.0022 | 0.0106 | 0.0097 | 0.0117 | 0.0072 | 0.0068 | 13.6 nM and 1.96 µg/mL | 0.383 | 0.0187 | 0.0035 | 0.0015 | 17.6 | 40.3 | 34.9 | 39 | 39.4 | Lysis of JJN-3 cells (%) at 100 pM TCB, Experiment 1 (human BCMA on cells [6]): 41.9%; Lysis of JJN-3 cells (%) at 100 pM TCB, Experiment 2 (human BCMA on cells [6]): 55.3%; Lysis of JJN-3 cells (%) at 1000 pM TCB, Experiment 1 (human BCMA on cells [6]): 84%; Lysis of JJN-3 cells (%) at 1000 pM TCB, Experiment 2 (human BCMA on cells [6]): 81.1%; Lysis of JJN-3 cells (%) at 10000 pM TCB, Experiment 1 (human BCMA on cells [6]): 92.9%; Lysis of JJN-3 cells (%) at 10000 pM TCB, Experiment 2 (human BCMA on cells [6]): 90.4%; Annexin-V positive JJN-3 cells (%) at 0.1 pM TCB, Experiment 2 (human BCMA on cells [7]): 12.8%; Annexin-V positive JJN-3 cells (%) at 1 pM TCB, Experiment 1 (human BCMA on cells [7]): 11.9%; Annexin-V positive JJN-3 cells (%) at 1 pM TCB, Experiment 2 (human BCMA on cells [7]): 13.5%; Annexin-V positive JJN-3 cells (%) at 10 pM TCB, Experiment 1 (human BCMA on cells [7]): 12.3%; Annexin-V positive JJN-3 cells (%) at 10 pM TCB, Experiment 2 (human BCMA on cells [7]): 13.6%; Annexin-V positive JJN-3 cells (%) at 100 pM TCB, Experiment 1 (human BCMA on cells [7]): 8.62%; Annexin-V positive JJN-3 cells (%) at 100 pM TCB, Experiment 2 (human BCMA on cells [7]): 14.4%; Annexin-V positive JJN-3 cells (%) at 1000 pM TCB, Experiment 1 (human BCMA on cells [7]): 16.8%; Annexin-V positive JJN-3 cells (%) at 1000 pM TCB, Experiment 2 (human BCMA on cells [7]): 21.7%; Annexin-V positive JJN-3 cells (%) at 10000 pM TCB, Experiment 1 (human BCMA on cells [7]): 24.8%; Annexin-V positive JJN-3 cells (%) at 10000 pM TCB, Experiment 2 (human BCMA on cells [7]): 26.9%; EC50 (human BCMA on cells [8]): 3.8 nM and 0.553 µg/mL |
